From the supplement of paper PMC9170038

Tested on: MS2 coat protein
Test: apparent KD of MS2 coat protein; higher = weaker reporter binding
Conditions: Eterna round: R107
Outline: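 The buffer was 100 mM Tris-HCl pH 7.5 with 80 mM KCl and 4 mM MgCl2, used without or with constant ligand. In it, RNA switches transcribed on-chip from Illumina sequencing clusters were titrated with SNAP-549-labelled MS2 coat protein in twofold steps from 0.7 or 1.5 nM to 3 µM. Apparent KD for each design is the median of its normalised cluster binding-curve fits.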

[1] = input ligand: theophylline 20 uM
[2] = input ligand: theophylline 2 mM
[3] = input ligand: tryptophan 2.4 mM

Sequence	apparent KD of MS2 coat protein (input ligand: arginine 13.2 mM)	apparent KD of MS2 coat protein [1]	apparent KD of MS2 coat protein [2]	apparent KD of MS2 coat protein (input ligand: none)	apparent KD of MS2 coat protein [3]
CUAUAUUUAUCGGCCGCCACUUACUCAUGAGGUAACAACAUGAGGAUCACCCAUGUUUGAGGAUCAAGGACCGGGAUAAAUAUAG [AstrosSSTryB#17]	25.4 nM	34.2 nM	31 nM	–	–
GCUAGUGGCAGAAGGAGCGACAUUUAUAGUGGUCGAUACAUGAGGAUCACCCAUGUACUAUGUCAGGUAGGUCGCUGCCACUAGC [EAB NP+V+V2 #5]	31.6 nM	44.8 nM	34 nM	35.1 nM	32.5 nM
UAGUUAGCGGCGGCCGCCACUCGAGAUAUAACAUGAUAUCAUAACAUGAGGAUCACCCAUGUCACGAGGACCGGGCCGAUCUUCA [Same State Typptophan B GF6]	27.9 nM	102 nM	163 nM	48.5 nM	49.4 nM
GCGAUGGAGCGAAGGAGCGUGCUAGUACAUGAGGAUCACCCAUGUGAGUCGCAUCGCUAAGCACAGGUAGGUCGCGCUCCAUCGC [EAB NP+V+V2 #9]	44.6 nM	122 nM	145 nM	94.2 nM	87.6 nM
GGGCAAGAGGGAAGGAGCGUCGGCUGAGUAACAUGAGGAUCACCCAUGUAGCACAUAGUGUGGCAGGUAGGUCGCCCUCUGCCCU [SS-ArgB7]	17.5 nM	16.9 nM	13.7 nM	11.3 nM	13.2 nM
GGUUCAUCGUCGGCCGCCACUCACAUGAGGUGGAGCUGUAAACAUGAGGAUCACCCAUGUUGUUAGAGGACCGGGACGUGACGGC [theeternabot_exclusion_MS2_Trp_B_6]	25.5 nM	43.4 nM	42.1 nM	–	–
AACAUGAGGAUCACCCAUGUACCUUUCGAUCGAGGACCGGUACGGCCGCCACUCGAAAACAUGAGGAUCACCCAUGUUCAACAGG [Tryp A SS t3]	58.7 nM	128 nM	154 nM	–	–
ACAUGAGGAUCACCCAUGUCAGGGCACGAUACCAGCUGAUCCGGUGGCCCUUGGCAGCGUGACGUUUGGUCCCGCGGAUCACACG [xxmullin]	92.4 nM	262 nM	334 nM	326 nM	404 nM
UUGGGUUUGUGAAGGAGCGGGAAAGAUAUAUAUUUAAUCCUAACAUGAGGAUCACCCAUGUCCCAGGUAGGUCGCGCGGGUUUGG [12.O]	33.9 nM	46.4 nM	64.3 nM	47.1 nM	46.9 nM
UGUAAUGUGGGAAGGAGCGCAUACUUCACAUGAGGAUCACCCAUGUCAAGACGUGAGUCAGUGCAGGUAGGUCGCCUAGUUUAGA [Same State - Arginine B (Freestyle 18)]	37.2 nM	75.4 nM	88.9 nM	97 nM	42 nM
ACGGGCAUGGCGGCCGCCACUGGUUGGCGUGCGGAUGAGGGAACAUGAGGAUCACCCAUGUUGGUUAGGACCGGGCUGGCGUCGA [kkymullin]	12.6 nM	49.8 nM	16 nM	15.4 nM	18 nM
AUGCAGGGCAACAGCCACUGUCACGGUGAUACCAGUACCCGUGCGUACCCUUGGCAGCAUCGUGGUACAUGAGGAUCACCCAUGU [Enatleceed]	36.8 nM	503 nM	–	–	546 nM
UGACAUUGCUGCGAUACCAGACAUGAGGAUCACCCAUGUACCAAGGUAACCGAAAGGCAUGUCCCUUGGCAGCGCAGCAAUGUCU [MAT - Exclusion Theophlline B - Mod of Eli - D13]	12.8 nM	21 nM	–	–	12.2 nM
GUAUAAAGAAAACUUUAUACAGUGGGUGAACGAGGACCGGUACGGCCGCCACUCGGACAUGAGGAUCACCCAUGUCCAUGUGAAA [AstrosExyTryA#9]	14.4 nM	13.9 nM	17 nM	14.3 nM	37.2 nM
GCGAUGGAGCGAAGGAGCGUGCUGGUACAUGAGGAUCACCCAUGUGAACCGCAGCGCUAAGCACAGGUAGGUCGCGCUCCAUCGC [EAB NP+V+V2 #14]	102 nM	28.4 nM	23 nM	28.8 nM	41.9 nM
GGUAGCAGGACUGAUACCAGUCCAGCGAAUCAUACGACGCAACAUGAGGAUCACCCAUGUGACCCUUGGCAGCAGACUGCUACCG [Same State Theophylline B GF 28]	29.4 nM	24.8 nM	–	–	26.7 nM
CCCAUACAUGAGGAUCACCCAUGUGUUGAUACCAGCAUAUGUAGAUGCCCUUGGCAGCAAGCUUGGGUCACUGGAAAACAUCUAA [theeternabot_sameState_MS2_Theo_A_38]	23.8 nM	27.4 nM	–	–	22.6 nM
UGUAUGGACUGAAGGAGCGACUCAAAAUAACAUGAGGAUCACCCAUGUAAGGCGAAAGCCGGUCAGGUAGGUCGCAGUCCAUACU [ArgBX 3]	13.7 nM	16.1 nM	10.6 nM	11.3 nM	11.6 nM
UAUCCACAUGAGGAUCACCCAUGUAAGGAAGGAGCGGUGAAUGCACCAGGUAGGUCGCCUUGCUGAGGACAGCCGGUGGAUUCGU [Exclusion - Arginine A (Freestyle 24)]	14.7 nM	17.9 nM	21.9 nM	17.7 nM	16.2 nM

Sequence	apparent KD of MS2 coat protein (input ligand: arginine 13.2 mM)	apparent KD of MS2 coat protein [1]	apparent KD of MS2 coat protein [2]	apparent KD of MS2 coat protein (input ligand: none)	apparent KD of MS2 coat protein [3]
CAACUGGCAGAGGAUACCAGAUCAUUUAGAAACAUGAGGAUCACCCAUGUCGUAAGGAUAAUCCCUUGGCAGCCUAUCCGCCUCG [theeternabot_sameState_MS2_Theo_B_48]	14.2 nM	16.6 nM	–	–	14.5 nM
GUGGAGACAUGAGAUACCAGUCUCUUUAACAUGAGGAUCACCCAUGUAAUGCUCCUCGGAGACCCUUGGCAGCUCAGUAUGAUGA [#09 Exclusion-TheophyllineB]	32.2 nM	71.7 nM	–	–	34.4 nM
AAUGGCCGUACCGGAAGGGUGAUCCUCAAACGAGGACCGGUACGGCCGCCACUCGAUAACAUGAGGAUCACCCAUGUAAUAAUAA [|T'-M'-Trp-Ms2|_Design13]	85 nM	481 nM	677 nM	–	–
ACGACGCAUAGUGAUACCAGUAGAACAUGAGGAUCACCCAUGUCUGUUAUGUACAAAUACUGCCCUUGGCAGCACUAUGCGUCAG [SSTheo B #5]	9.85 nM	12.1 nM	–	–	11.6 nM
UCAGCACAUGAGGAUCACCCAUGUCGUGAUACCAGCCUGUGCGAAGGCCCUUGGCAGCACAGUCCCGAUUUGCUUAUAUGCACUU [theeternabot_sameState_MS2_Theo_A_48]	32.4 nM	61 nM	–	–	34.4 nM
UCUAGUGCGGGAAGGAGCGCCAUACAUGAGGAUCACCCAUGUUGAGCAUGCUCGUGUACUAGGCAGGUAGGUCGCCCGCUCUACG [Radionle]	28.8 nM	30.9 nM	23.5 nM	27.2 nM	23.3 nM
GAGUAGAGGACGGCCGCCACUGAACAUGAGGAUCACCCAUGUCGUGAUCCGUUACCUAAAGAAGAUAGGACCGGGUCAUGUACUC [Exclusion Tryptophan B GF 19]	28.9 nM	41.7 nM	32.7 nM	–	–
AGCGACAUGCGUGAUACCAGCUACAUGAGGAUCACCCAUGUACGUCAGUAAUGACUGUGUAGCCCUUGGCAGCAUAAUGCAUGUC [Exclusion - Theophylline B (Freestyle 18)]	36.1 nM	55.8 nM	–	–	33.3 nM
UGGAAAGCACAUGAGGAUCACCCAUGUGAUACCAGCUGAAACUAAGGCCCUUGGCAGCACAUGGUACCAACCCUUUGGUAGUCCA [Vearedqu]	10.9 nM	19.9 nM	–	–	10.3 nM
UGUAUGUGAUCUGAUACCAGUCCAACUGGUAAACCAUGAGGAUCACCCAUGGAAAAUUGGGACCCUUGGCAGCAGAUCGCAUACU	96.5 nM	236 nM	20.9 nM	–	322 nM
GGGAGGUAGGCGGCCGCCACUGAUUUUCAUAUAUAUAUAACAUGAGGAUCACCCAUGUAGAUAUACAGGACCGGGCCUAUUUUUU [aaaF]	30.2 nM	21.9 nM	18.2 nM	18.8 nM	14.2 nM
UUUUUCGUAGGUUAAAGUUUAGAAACUGAAGGAGCGUGGUAAUACACAGGUAGGUCGCAGAUUUUACAUGAGGAUCACCCAUGUU [JR_ExcArginiA_Sub012]	26.9 nM	20.7 nM	26.2 nM	24.5 nM	21.1 nM
ACGUUUUAGUCGGCCGCCACUGUUUUCAUGUUCAACAUGAGGAUCACCCAUGUACCUUUUUUUAUCAGGACCGGGACGUAAUAGA [JR_SSTryptoB_Sub004]	47.7 nM	102 nM	77.3 nM	–	–
CGAUAGAUACGAAGGAGCGACAUGAGGAUCACCCAUGUCUACCACGUCGAAAGACGCUCAUGUCAGGUAGGUCGCGUAUUUAUCG [Astros-Eli-mod8]	60.3 nM	124 nM	156 nM	122 nM	101 nM
CUGACGUAGGAAGAUAUCUGGAACAAGGAUACCAGUAAACCAACAUACCCUUGGCAGCCUAAAACAUGAGGAUCACCCAUGUAAU [theeternabot_exclusion_MS2_Theo_A_26]	11.9 nM	14.2 nM	–	–	13.7 nM
UGCGUACAUGAGGAUCACCCAUGUAUAGAUACCAGUCACCCAUGUGGCCCUUGGCAGCUAACAUGAGGAUCACUACAUGAGGAUC [Exclusion Theophylline A 3]	24.3 nM	72.2 nM	–	–	32.7 nM
GGGAAAGAAUGUGAUACCAGAGAACCGGUCUCCAUCAAUAUACAUGAGGAUCACCCAUGUCUCCCUUGGCAGCACCAUCAUCAAA [Exclusion Theophylline B GF 27]	21 nM	28.3 nM	–	–	22 nM
AGUCUUGAACGAAGGAGCGACGUACAUGAGGAUCACCCAUGUGGAGCGAAAGCUCCGUAACGUCAGGUAGGUCGCGUUCGAGACA [Omei Arginine B SS A v3]	6.89 nM	15.6 nM	13.1 nM	9.25 nM	12.5 nM
GUUUAGAGCUCGGCCGCCACUCAAACAUGAGGAUCACCCAUGUAAAACAUGAGGAUCACCCAUGUGAGGACCGGGAGAAAUAAGA [Exclusion Tryptophan B GF7]	242 nM	370 nM	435 nM	337 nM	420 nM
